{
  "source": "paper PMC12463490",
  "molecular_target": "T1, rCCN2 (cellular communication network factor 2) (UniProt P29279)",
  "T1 sequence": "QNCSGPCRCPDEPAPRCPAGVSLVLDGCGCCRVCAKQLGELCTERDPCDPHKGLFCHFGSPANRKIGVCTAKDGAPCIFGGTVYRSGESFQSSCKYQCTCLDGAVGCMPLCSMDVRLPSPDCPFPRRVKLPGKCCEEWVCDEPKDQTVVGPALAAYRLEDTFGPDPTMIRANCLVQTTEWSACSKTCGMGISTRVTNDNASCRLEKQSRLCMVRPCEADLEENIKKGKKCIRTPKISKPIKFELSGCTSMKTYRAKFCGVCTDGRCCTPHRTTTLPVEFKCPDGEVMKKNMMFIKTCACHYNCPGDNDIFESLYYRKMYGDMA",
  "experiment": "EMSA",
  "details": "20 mM HEPES (pH not stated), 45 mM KCl, 10 mM NaCl, 1 mM DTT, 0.1% NP-40, 10% glycerol, 4 C overnight; 4% polyacrylamide gel in TBE",
  "data": [
    {"sequence": "GCACACATGCTTCCTGTGGTGACTGGGCGCTTCCTGTTTTCTCAGGCACCGGCCTTGCTGCTGCCGATGTGGAAACAGGGGCAGCTGCAGCCAGGGCGGCTCCAGGCTGGGCACTCTGACCCTGCCCAGAAGGGAGTGAGGGGGCCCACCACCCTTAGACTTACGATCTAGACAGTGGGT (double strand) [Spi1 proximal promoter probe (178 bp)]", "values": [
      {"measurement": "binding", "value": "binds"}
    ]}
  ]
}
